The test system of the series is MS2 coat protein. Nature of the series: apparent KD of MS2 coat protein; designed switch direction (-1 OFF switch, 1 ON switch): -1; higher = weaker reporter binding. The procedure, abridged: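 On Illumina chips, designed RNA switches with common flanks were made by stalled E. coli RNA polymerase. Titrations with SNAP-549-labelled MS2 coat protein, doubling from 0.7 or 1.5 nM to 3 µM, were done with no input, with 200 uM small-molecule ligand, or with an oligonucleotide input. Apparent KD is the median per design over clusters, from curve fits of normalised cluster fluorescence.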

[1] abbreviates: Eterna round: R95, input ligand: FMN 200 uM.
The mark [2] stands for this setting: Eterna round: R95, input ligand: microRNA oligo, concentration not stated.
The mark [3] stands for this setting: Eterna round: R95, input ligand: none.
Setting [4] is: input ligand: microRNA oligo, concentration not stated.

Consider “UUUAAUUUUUUUUUUUUACAAGCUUUUUGCUCGUCUUAUACAUGAGGAUCACCCAUGUAAGUGGAGGAUAAAUUAUC [JMF 33] (puzzle: Sensor v3, turn-off variant 2)”, for which the “apparent KD of MS2 coat protein” value is 24.7 nM under setting [1], 23.8 nM under setting [2] and 24.1 nM under setting [3].

As for “UUUAAUUUUUUUUUUUUACAAGCUUUUUGCUCGUCUUAUACAUGAGGAUCACCCAUGUAAGUGGGAAGUAAAUUAUC [JMF 54] (puzzle: Sensor v3, turn-off variant 2)”, the “apparent KD of MS2 coat protein” value reads like this: under setting [1], 48.3 nM; under setting [2], 184 nM; under setting [3], 83.8 nM.

Turning to “UUUAAUUUUUUUUUUUUACAAGCUUUUUGCUCGUCUUAUACAUGAGGAUCACCCAUGUAGAUGGAGGAUAAAUUAUC [JMF 32] (puzzle: Sensor v3, turn-off variant 2)”, the “apparent KD of MS2 coat protein” value is, setting by setting: under setting [1], 14.4 nM; under setting [2], 28.9 nM; under setting [3], 15.2 nM.

“UUUAAUUUUUUUUUUUUACAAGCUUUUUGCUCGUCUUAUACAUGAGGAUCACCCAUGUGAGUGGAAGAUAAAUUAUC [JMF 11] (puzzle: Sensor v3, turn-off variant 2)”: the “apparent KD of MS2 coat protein” value reads like this: under setting [1], 15.1 nM; under setting [2], 15 nM; under setting [3], 17.9 nM.

Turning to “UUUAAUUUUUUUUUUUUACAAGCUUUUUGCUCGUCUUAUACAUGAGGAUCACCCAUGUGGAUGGGAGAUAAAUUAUC [JMF 19] (puzzle: Sensor v3, turn-off variant 2)”, the “apparent KD of MS2 coat protein” value under setting [1] amounted to 30.9 nM, the “apparent KD of MS2 coat protein” value under setting [2] is 164 nM and the “apparent KD of MS2 coat protein” value under setting [3] worked out at 36.4 nM.

For “UUUAAUUUUUUUUUUUUACAAGCUUUUUGCUCGUCUUAUACAUGAGGAUCACCCAUGUGGGUAAAGGAUAAAUUAUC [JMF 25] (puzzle: Sensor v3, turn-off variant 2)”, the “apparent KD of MS2 coat protein” value came out at 31.6 nM under setting [1], 39.1 nM under setting [2] and 34.1 nM under setting [3].

For “UUUAAUUUUUUUUUUUUACAAGCUUUUUGCUCGUCUUAUACAUGAGGAUCACCCAUGUGGGUGAAAAGUAAAUUAUC [JMF 44] (puzzle: Sensor v3, turn-off variant 2)”, the “apparent KD of MS2 coat protein” value under setting [1] turned out to be 22.4 nM, the “apparent KD of MS2 coat protein” value under setting [2] was found to be 18.7 nM and the “apparent KD of MS2 coat protein” value under setting [3] came to 33.1 nM.

In the case of “UUUAAUUUUUUUUUUUUACAAGCUUUUUGCUCGUCUUAUACAUGAGGAUCACCCAUGUGGGUGGAAAAUAAAUUAUC [JMF 92] (Eterna round: R96, puzzle: Sensor v3, turn-off variant 2)”, the “apparent KD of MS2 coat protein” value (input ligand: FMN 200 uM) worked out at 583 nM, the “apparent KD of MS2 coat protein” value under setting [4] was found to be 232 nM and the “apparent KD of MS2 coat protein” value (input ligand: none) was found to be 472 nM.

Take “UUUAAUUUUUUUUUUUUACAAGCUUUUUGCUCGUCUUAUACAUGAGGAUCACCCAUGUGGGUGGAAAAUAAAUUAUC [JMF 92] (puzzle: Sensor v3, turn-off variant 2)”: the “apparent KD of MS2 coat protein” value reads like this: under setting [1], 33.9 nM; under setting [2], 45 nM; under setting [3], 88.4 nM.

In the case of “UUUAAUUUUUUUUUUUUACAAGCUUUUUGCUCGUCUUAUACAUGAGGAUCACCCAUGUGGGUGGAGGGUAAAUUAUC [JMF 89] (puzzle: Sensor v3, turn-off variant 2)”, the “apparent KD of MS2 coat protein” value was determined as 35.9 nM under setting [1], 63.6 nM under setting [2] and 67 nM under setting [3].

On to “UUUACAAGCUAUUGAUCCCACAUGAGGAUCACCCAUGUUCAUGGCCGUGAGGCUAGGUAUACAAUUGCUCGUCUUAU [mod-JR] (Eterna round: R97, puzzle: Sensor, turn-off variant 1)”, for which the “apparent KD of MS2 coat protein” value is, setting by setting: (input ligand: FMN 200 uM) 59.8 nM; (input ligand: none) 78.7 nM.

Turning to “UUUACAAGCUUUAGAUCCCACAUGAGGAUCACCCAUGUUGCUGCCGGUGACGGUAGCAUAACUAAUGCUCGUCUUAU [JL TOV1 3.62] (Eterna round: R97, puzzle: Sensor, turn-off variant 1)”, the “apparent KD of MS2 coat protein” value amounted to 123 nM (input ligand: FMN 200 uM) and 235 nM (input ligand: none).

In the case of “UUUACAAGCUUUUGAUCCCACAUGAGGAUCACCCAUGUUGCUGCCGUGAGGUAGCAUUUAACAAAUGCUCGUCUUAU [JL TOV1 3.54] (Eterna round: R97, puzzle: Sensor, turn-off variant 1)”, the “apparent KD of MS2 coat protein” value reads like this: (input ligand: FMN 200 uM) 404 nM; (input ligand: none) 1380 nM.

For the sequence “UUUAGUUCAGGAUAUGUAGAAAUUAACAUGAGGAUCACCCAUGUCGAUCCUGAAUUAACUACAGAAGGGAACAUUU [Mod of Brourd 6 - Jieux - Exclusion 5] (Eterna round: R97, puzzle: Exclusion 5)”, the “apparent KD of MS2 coat protein” value worked out at 50 nM (input ligand: FMN 200 uM) and 14.2 nM (input ligand: none).

Turning to “UUUAGUUCAGGAUAUGUAGAAUUUAACAUGAGGAUCACCCAUGUAGAUCCUGAAUUAACUACAGAAGGGAACAUUU [Exclusion 5: 2:a mod2] (Eterna round: R97, puzzle: Exclusion 5)”, the “apparent KD of MS2 coat protein” value is, setting by setting: (input ligand: FMN 200 uM) 69.1 nM; (input ligand: none) 15.2 nM.

In the case of “UUUAGUUCAGGAUAUGUAGACAUUAACAUGAGGAUCACCCAUGUAGAUCCUGAAUUGACUACAGAAGGGAGCAUUU [Mod of Brourd 9 - Jieux - Exclusion 5] (Eterna round: R97, puzzle: Exclusion 5)”, the “apparent KD of MS2 coat protein” value by setting is: (input ligand: FMN 200 uM) 88.9 nM; (input ligand: none) 23.9 nM.

Consider “UUUAUAAUAAGAUCAAUUAAUUAACAUGAGGAUCACCCAUGUGAGGAUAUCAGCUCGAUUAGAGCUGAGAAGGCACAAUAUAAG [ExNG3/17-B1] (Eterna round: R96, puzzle: Exclusion NG 3)”, for which the “apparent KD of MS2 coat protein” value is 79.3 nM (input ligand: FMN 200 uM), 36.3 nM under setting [4] and 43.3 nM (input ligand: none).

Turning to “UUUAUAAUAAGAUCAAUUAAUUAACAUGAGGAUCACCCAUGUGAGGAUAUCAGCUCGUGUAGAGCUGAGAAGGCACAAUAUAAG [ExNG3/17-B3] (Eterna round: R96, puzzle: Exclusion NG 3)”, under setting [4], the “apparent KD of MS2 coat protein” value worked out at 36.2 nM.

Take “UUUAUAAUUUCAAUCUUCGCUGGCGAACUUACGCCAGCCACAUGAGGAUCACCCAUGUUUUUUGUUCGUUUUAUUCU [Gelaoren] (puzzle: Sensor v3, turn-off variant 2)”: the “apparent KD of MS2 coat protein” value under setting [1] turned out to be 19.5 nM, the “apparent KD of MS2 coat protein” value under setting [2] was found to be 66.6 nM and the “apparent KD of MS2 coat protein” value under setting [3] was 21.1 nM.

For “UUUAUAUAGUAAGGAUAUGUAUUAUUGUUAUCAACAGAAGGUACUGACAUGAGGAUCACCCAUGUUUUAGUGUGGGCAUGUAGU [JMF's solution 96] (Eterna round: R96, puzzle: Exclusion NG 1)”, the “apparent KD of MS2 coat protein” value (input ligand: FMN 200 uM) was determined as 425 nM, the “apparent KD of MS2 coat protein” value under setting [4] was 277 nM and the “apparent KD of MS2 coat protein” value (input ligand: none) was 446 nM.

For the sequence “UUUAUAUAUGAAGGAUAUACUUAACAUGAGGAUCACCCAUGUGGUGUUGUGAGUGAGUGAGUUUAGUAGAAGGUCAAGUAUUUU [JMF's solution 49] (Eterna round: R96, puzzle: Exclusion NG 2)”, the “apparent KD of MS2 coat protein” value was determined as 719 nM (input ligand: FMN 200 uM), 177 nM under setting [4] and 198 nM (input ligand: none).

Regarding “UUUAUGUAAGGAUAUAUGAGUCACGGAAAUAAACCGUGAAGAUAGAAGGUACAUGAGGAUCACCCAUGUAAGGC [Mod of Anonveat 8 - Jieux - Exclusion 4] (Eterna round: R97, puzzle: Exclusion 4)”, the “apparent KD of MS2 coat protein” value by setting is: (input ligand: FMN 200 uM) 40.1 nM; (input ligand: none) 22.9 nM.

With “UUUAUGUCAGGAUAUACAUGAGGAUCACCCAUGUAUAUCUUAAAGUAUACAUGGGAAUGUAGAAGGGACCUCCU [Omei Ex3 Pseudoloop 5] (Eterna round: R97, puzzle: Exclusion 3)”, the “apparent KD of MS2 coat protein” value turned out to be 43.8 nM (input ligand: FMN 200 uM) and 35 nM (input ligand: none).

Turning to “UUUAUGUCAGGAUAUGAUUAGAUCUACUUUUGUAGAUCUAAUCAGAAGGGACAUGAGGAUCACCCAUGUAGUUU [Ex4 - 3 - 14] (puzzle: Exclusion 4)”, under setting [2], the “apparent KD of MS2 coat protein” value is 116 nM.

“UUUAUUAAUUAAUAUAAUAAGAUCACAUGAGGAUCACCCAUGUAGGAUAUCAGCUCGUUUAGAGCUGAGAAGGACAUAAUUAUA [ExNG3/1-B2] (Eterna round: R96, puzzle: Exclusion NG 3)”: the “apparent KD of MS2 coat protein” value was determined as 135 nM (input ligand: FMN 200 uM), 33.6 nM under setting [4] and 35.9 nM (input ligand: none).

In the case of “UUUCAGCUAGGAUAUGCCCUGAUGCACAUGAGGAUCACCCAUGUCGGCUUGUGUAUGAGCGCAGAAGGAGCGAAAA [EX5 C.17] (Eterna round: R97, puzzle: Exclusion 5)”, the “apparent KD of MS2 coat protein” value (input ligand: FMN 200 uM) worked out at 783 nM and the “apparent KD of MS2 coat protein” value (input ligand: none) turned out to be 268 nM.

For “UUUCUCUGGGCGUCUUCUUACAUGAGGAUCACCCAUGUUUCAUAGGAUAUGCUAUAGUGUUACAUGCAGAAGGAUGUUUGUUUU [JR_ExcNG3_Sub080] (Eterna round: R96, puzzle: Exclusion NG 3)”, under setting [4], the “apparent KD of MS2 coat protein” value turned out to be 189 nM.

In the case of “UUUGAAUAGGUAGGAUAUACAUACAUUCCUACAUUACUAACAUGAGGAUCACCCAUGUAUACAUUGUAGAAGGACCAGAUUGAU [JR_ExcNG2_Sub039] (Eterna round: R96, puzzle: Exclusion NG 2)”, under setting [4], the “apparent KD of MS2 coat protein” value amounted to 18.8 nM.

For “UUUGAUAGCACAGGAUAUUGUCAUUUGAGUUGUCAAGAAGGGUGUACAUGAGGAUCACCCAUGUAAUGGUUGCCUCGCUGACUU [JR_ExcNG1_Sub007] (Eterna round: R96, puzzle: Exclusion NG 1)”, the “apparent KD of MS2 coat protein” value under setting [4] came out at 105 nM.

As for “UUUGAUUGCACAGGAUAUUGUCAUUUGAGUUGUCAAGAAGGGUGUACAUGAGGAUCACCCAUGUUAUGCUUUCCUCGCUCACUU [JR_ExcNG1_Sub009] (Eterna round: R96, puzzle: Exclusion NG 1)”, the “apparent KD of MS2 coat protein” value by setting is: (input ligand: FMN 200 uM) 15.5 nM; under setting [4], 12.8 nM; (input ligand: none) 20 nM.

These data come from the supplement of paper PMC9170038.
